Data set [1] has as its target WT BetP reconstituted in amphipol A8-35 (AMP-BetP) (Corynebacterium glutamicum) (UniProt P54582). Kind of data set: cryo-EM structure.
Data set [2] shares this target. Briefly: cryo-EM structure. This is another data set of the same source.
Data set [3] concerns the molecule itself. Kind of data set: crystal structure.

Like-named read-outs stand apart in the source and are kept apart here.

In the case of “WT BetP reconstituted in amphipol A8-35 (AMP-BetP) (from UniProt P54582 1-595) (natural protein)”, the stoichiometry N in data set [1] and in data set [2] was 3 each time.

B1: BetP-ΔN29/E44E45E46/AAA (crystallization mutant BetP^cryst) (natural protein, Corynebacterium glutamicum, UniProt P54582 30-595, looked up)
chain: LENPTNLEGKLADAAAAIILEGEDTQASLNWSVIVPALVIVLATVVWGIGFKDSFTNFASSALSAVVDNLGWAFILFGTVFVFFIVVIAASKFGTIRLGRIDEAPEFRTVSWISMMFAAGMGIGLMFYGTTEPLTFYRNGVPGHDEHNVGVAMSTTMFHWTLHPWAIYAIVGLAIAYSTFRVGRKQLLSSAFVPLIGEKGAEGWLGKLIDILAIIATVFGTACSLGLGALQIGAGLSAANIIEDPSDWTIVGIVSVLTLAFIFSAISGVGKGIQYLSNANMVLAALLAIFVFVVGPTVSILNLLPGSIGNYLSNFFQMAGRTAMSADGTAGEWLGSWTIFYWAWWISWSPFVGMFLARISRGRSIREFILGVLLVPAGVSTVWFSIFGGTAIVFEQNGESIWGDGAAEEQLFGLLHALPGGQIMGIIAMILLGTFFITSADSASTVMGTMSQHGQLEANKWVTAAWGVATAAIGLTLLLSGGDNALSNLQNVTIVAATPFLFVVIGLMFALVKDLSNDVIYLEYREQQRFNARLARERRVHNEHRKRELAAKRRRERKASGAGKRR
With B1, the “stoichiometry N” value in data set [3] turned out to be 3.

The term stoichiometry N denotes a count of units in the complex or per binding partner.

The values are drawn from publication doi:10.1101/2022.06.02.493408 (bioRxiv, 2022).
